Target: T1, T4 Rad50 (wild type) (bacteriophage T4, UniProt P04522 1-560)
T1 construct: Rad50 (gp46) of bacteriophage T4; the introduction says that the T4 complex is purified without truncation of Rad50's coiled-coil; also called WT Rad50; gp46; source: E. coli BL21 (DE3), purified (nickel column)
T1 sequence (looked up): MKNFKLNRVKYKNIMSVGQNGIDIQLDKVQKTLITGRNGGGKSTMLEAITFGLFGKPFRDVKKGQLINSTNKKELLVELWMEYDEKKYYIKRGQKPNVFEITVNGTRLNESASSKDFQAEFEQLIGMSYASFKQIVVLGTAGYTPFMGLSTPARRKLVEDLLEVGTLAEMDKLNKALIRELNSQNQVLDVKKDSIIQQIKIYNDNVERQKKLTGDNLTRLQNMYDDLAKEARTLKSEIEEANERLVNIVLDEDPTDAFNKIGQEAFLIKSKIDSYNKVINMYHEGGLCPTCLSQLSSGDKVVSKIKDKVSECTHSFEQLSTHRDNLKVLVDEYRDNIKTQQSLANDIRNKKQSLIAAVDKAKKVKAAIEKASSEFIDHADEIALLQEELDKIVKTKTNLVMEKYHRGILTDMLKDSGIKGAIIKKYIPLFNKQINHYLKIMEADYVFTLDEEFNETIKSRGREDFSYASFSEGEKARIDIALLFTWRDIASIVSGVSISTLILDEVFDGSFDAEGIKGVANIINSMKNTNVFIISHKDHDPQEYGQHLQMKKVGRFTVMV
Test: negative-stain EM; WT T4-MR complex with ATPγS, in the absence of DNA
Conditions: both partners purified

B1: T4 Mre11 (wild type) (enzyme, bacteriophage T4, UniProt P04521 1-339, looked up)
chain: MKILNLGDWHLGVKADDEWIRGIQIDGIKQAIEYSKKNGITTWIQYGDIFDVRKAITHKTMEFAREIVQTLDDAGITLHTIVGNHDLHYKNVMHPNASTELLAKYPNVKVYDKPTTVDFDGCLIDLIPWMCEENTGEILEHIKTSSASFCVGHWELNGFYFYKGMKSHGLEPDFLKTYKEVWSGHFHTISEAANVRYIGTPWTLTAGDENDPRGFWMFDTETERTEFIPNNTTWHRRIHYPFKGKIDYKDFTNLSVRVIVTEVDKNLTKFESELEKVVHSLRVVSKIDNSVESDDSEEVEVQSLQTLMEEYINAIPDITDSDREALIQYANQLYVEATQ
notes: Mre11 (gp47) of bacteriophage T4; Used together with WT Rad50 as the WT-MR complex; also called WT Mre11; gp47; source: E. coli BL21 (DE3), purified (chitin column)
B1: binds.
